± gives the uncertainty stated by the source.
B1: Transcription intermediary factor 1-beta, residues 620 to 671; numbered along this chain, Q13263 (parent)
chain: TLDDSATICRVCQKPGDLVMCNQCEFCFHLDCHLPALQDVPGEEWSCSLCHV

Variants of: B1
Assay: abundance fitness (aPCA) (normalised: wild type 0, dead -1); higher = more abundant; growth selection in yeast, the domain comes from the species named
Conditions: Homo sapiens
F28T showed an abundance fitness of -0.278 ± 0.12. In the case of F28Q, the abundance fitness is reported as -0.549 ± 0.31. In the case of F28W, the abundance fitness is reported as 0.093 ± 0.11. Work on F28H yielded an abundance fitness of -0.346 ± 0.35. Work on F28K yielded an abundance fitness of -0.427 ± 0.23. V11Y gave an abundance fitness of -0.515 ± 0.17. Work on V11L yielded an abundance fitness of 0.009 ± 0.078. For V11S, the abundance fitness was -0.312 ± 0.084. Work on V11G yielded an abundance fitness of -0.221 ± 0.1. For V11P, the abundance fitness was -0.779 ± 0.14. Variant V11Q has an abundance fitness of -0.136 ± 0.12. In the case of V11W, the abundance fitness is reported as -0.409 ± 0.1. V11H gave an abundance fitness of -0.659 ± 0.22. In the case of V11N, the abundance fitness is reported as -0.142 ± 0.15. In the case of V11E, the abundance fitness is reported as -0.072 ± 0.12. For V11A, the abundance fitness was -0.131 ± 0.081. For V11M, the abundance fitness was 0.059 ± 0.093. Work on V11I yielded an abundance fitness of -0.064 ± 0.11. For V11C, the abundance fitness was -0.39 ± 0.12. In the case of V11R, the abundance fitness is reported as -0.128 ± 0.088. V11K gave an abundance fitness of -0.162 ± 0.11. V11D gave an abundance fitness of -0.484 ± 0.21. In the case of F26C, the abundance fitness is reported as -0.029 ± 0.24. With F26A the abundance fitness was -0.063 ± 0.11. F26P gave an abundance fitness of -0.993 ± 0.24. For F26S, the abundance fitness was -0.192 ± 0.1. F26G gave an abundance fitness of 0.121 ± 0.1. In the case of F26D, the abundance fitness is reported as -0.034 ± 0.22. Work on F26K yielded an abundance fitness of 0.155 ± 0.13. Variant F26W has an abundance fitness of -0.399 ± 0.13. In the case of F26M, the abundance fitness is reported as -0.108 ± 0.2. Variant F26I has an abundance fitness of -0.812 ± 0.34. With F26R the abundance fitness was -0.045 ± 0.097. F26H gave an abundance fitness of -0.374 ± 0.21. Work on F26V yielded an abundance fitness of -0.33 ± 0.11. Work on F26Q yielded an abundance fitness of 0.082 ± 0.16. With F26N the abundance fitness was -0.122 ± 0.21. F26L showed an abundance fitness of -0.328 ± 0.12. In the case of F26E, the abundance fitness is reported as 0.04 ± 0.15. For F26T, the abundance fitness was -0.563 ± 0.17. Work on C9I yielded an abundance fitness of -0.955 ± 0.3. C9R showed an abundance fitness of -1.18 ± 0.2. For C9G, the abundance fitness was -0.931 ± 0.11. Work on C9Q yielded an abundance fitness of -1.12 ± 0.48. With C9A the abundance fitness was -0.861 ± 0.15. With C9W the abundance fitness was -0.905 ± 0.22. For C9V, the abundance fitness was -0.902 ± 0.14. Variant C9K has an abundance fitness of -0.802 ± 0.42. C9N showed an abundance fitness of -0.469 ± 0.23. C9P gave an abundance fitness of -0.324 ± 0.11. For C9S, the abundance fitness was -0.848 ± 0.14. Variant C9T has an abundance fitness of -0.926 ± 0.23. C9M gave an abundance fitness of -0.706 ± 0.32. Work on C9Y yielded an abundance fitness of -1 ± 0.21. In the case of P15W, the abundance fitness is reported as -0.771 ± 0.18. P15H showed an abundance fitness of -0.132 ± 0.22. Variant P15A has an abundance fitness of 0.005 ± 0.11. For P15D, the abundance fitness was -0.233 ± 0.2. With P15F the abundance fitness was -0.787 ± 0.27. In the case of P15M, the abundance fitness is reported as -0.168 ± 0.24. In the case of P15Y, the abundance fitness is reported as -0.255 ± 0.2. For P15T, the abundance fitness was -0.546 ± 0.17. For P15L, the abundance fitness was -0.684 ± 0.15. In the case of P15C, the abundance fitness is reported as -0.646 ± 0.15. P15G gave an abundance fitness of -0.126 ± 0.09. With P15S the abundance fitness was -0.022 ± 0.1. With P15N the abundance fitness was -0.396 ± 0.25. P15E showed an abundance fitness of -0.01 ± 0.14. In the case of P15Q, the abundance fitness is reported as -0.559 ± 0.21. Variant P15I has an abundance fitness of -0.359 ± 0.32. For P15K, the abundance fitness was -0.193 ± 0.2. For G16V, the abundance fitness was -0.827 ± 0.15. Work on G16L yielded an abundance fitness of -0.432 ± 0.12. Work on G16P yielded an abundance fitness of -0.945 ± 0.28. For G16T, the abundance fitness was -0.754 ± 0.3. G16E showed an abundance fitness of -0.307 ± 0.19. Variant G16W has an abundance fitness of -0.791 ± 0.13. Variant G16N has an abundance fitness of 0.137 ± 0.26. For G16R, the abundance fitness was -0.389 ± 0.11. G16K showed an abundance fitness of -0.258 ± 0.32. Variant G16Q has an abundance fitness of -0.477 ± 0.23. Variant G16H has an abundance fitness of -0.214 ± 0.17. G16S showed an abundance fitness of -0.091 ± 0.14. G16M showed an abundance fitness of -0.553 ± 0.2. Work on G16I yielded an abundance fitness of -0.534 ± 0.3. Variant G16C has an abundance fitness of -1.11 ± 0.23. With G16Y the abundance fitness was -0.879 ± 0.41. G16D gave an abundance fitness of 0.076 ± 0.29. With G16F the abundance fitness was -0.524 ± 0.31. In the case of G16A, the abundance fitness is reported as -0.639 ± 0.15. With E25G the abundance fitness was -0.27 ± 0.1. Work on E25R yielded an abundance fitness of -0.136 ± 0.12. Work on E25K yielded an abundance fitness of -0.228 ± 0.19. In the case of E25C, the abundance fitness is reported as -0.052 ± 0.16. In the case of E25A, the abundance fitness is reported as -0.227 ± 0.12. With E25M the abundance fitness was -0.286 ± 0.28. Variant E25S has an abundance fitness of 0.059 ± 0.11. E25V showed an abundance fitness of -0.493 ± 0.11. For E25P, the abundance fitness was -0.66 ± 0.24. With E25L the abundance fitness was -0.134 ± 0.1. With E25N the abundance fitness was -0.822 ± 0.39. E25Q showed an abundance fitness of -0.077 ± 0.19. E25Y showed an abundance fitness of -0.061 ± 0.19. With E25F the abundance fitness was -0.113 ± 0.18. With E25H the abundance fitness was -0.578 ± 0.4. E25W gave an abundance fitness of -0.322 ± 0.13. For E25T, the abundance fitness was -0.024 ± 0.12. With E25D the abundance fitness was -0.3 ± 0.26. E25I gave an abundance fitness of -0.298 ± 0.21. V19D showed an abundance fitness of 0.025 ± 0.33. V19C showed an abundance fitness of -0.536 ± 0.21. V19W showed an abundance fitness of 0 ± 0.12. In the case of V19S, the abundance fitness is reported as -0.613 ± 0.16. V19M showed an abundance fitness of -0.157 ± 0.15. V19T gave an abundance fitness of -0.314 ± 0.16. V19A showed an abundance fitness of -0.58 ± 0.14. For V19P, the abundance fitness was -0.943 ± 0.33. V19G gave an abundance fitness of -0.852 ± 0.14. V19E gave an abundance fitness of -0.519 ± 0.17. In the case of V19Q, the abundance fitness is reported as -0.402 ± 0.27. With V19F the abundance fitness was -0.311 ± 0.15. In the case of V19H, the abundance fitness is reported as 0.116 ± 0.3. For V19I, the abundance fitness was 0.008 ± 0.23. For V19R, the abundance fitness was -0.364 ± 0.11. V19L showed an abundance fitness of -0.171 ± 0.1. For V19N, the abundance fitness was -0.556 ± 0.34. I8P gave an abundance fitness of -0.302 ± 0.13. I8W showed an abundance fitness of -0.348 ± 0.11. For I8V, the abundance fitness was -0.095 ± 0.081. With I8Y the abundance fitness was 0.077 ± 0.12. I8Q showed an abundance fitness of 0.085 ± 0.15. For L30C, the abundance fitness was -0.135 ± 0.16. In the case of L30K, the abundance fitness is reported as -0.312 ± 0.24. Variant L30D has an abundance fitness of -0.755 ± 0.2. L30G showed an abundance fitness of -0.375 ± 0.12. With L30P the abundance fitness was -0.139 ± 0.17. In the case of L30N, the abundance fitness is reported as -0.264 ± 0.16. With L30H the abundance fitness was -0.194 ± 0.19. L30I gave an abundance fitness of -0.479 ± 0.22. Work on L30F yielded an abundance fitness of -0.609 ± 0.19. Work on L30A yielded an abundance fitness of -0.116 ± 0.16. L30E gave an abundance fitness of -0.196 ± 0.17. L30M showed an abundance fitness of -0.299 ± 0.16. Variant L30Q has an abundance fitness of -0.432 ± 0.27. Variant K14L has an abundance fitness of -0.513 ± 0.46. K14N gave an abundance fitness of -0.408 ± 0.25. For K14S, the abundance fitness was -0.35 ± 0.26. Work on K14F yielded an abundance fitness of -0.424 ± 0.3. Variant Q13K has an abundance fitness of -0.032 ± 0.13. Q13C showed an abundance fitness of 0.091 ± 0.13. Q13I showed an abundance fitness of -0.265 ± 0.16. In the case of Q13M, the abundance fitness is reported as -0.002 ± 0.1. With Q13F the abundance fitness was 0.042 ± 0.12. With Q13W the abundance fitness was -0.063 ± 0.1. Work on Q13H yielded an abundance fitness of 0.062 ± 0.15. Work on Q13Y yielded an abundance fitness of -0.111 ± 0.12. Variant Q13R has an abundance fitness of -0.025 ± 0.079. Variant Q13P has an abundance fitness of -0.82 ± 0.16. Variant Q13D has an abundance fitness of 0.144 ± 0.12. For Q13A, the abundance fitness was -0.322 ± 0.082. With Q13N the abundance fitness was 0.128 ± 0.17. Q13V showed an abundance fitness of -0.518 ± 0.079. Q13L showed an abundance fitness of -0.084 ± 0.079. In the case of Q13E, the abundance fitness is reported as 0.092 ± 0.093. With Q13T the abundance fitness was -0.085 ± 0.11. In the case of Q13S, the abundance fitness is reported as 0.036 ± 0.088. In the case of Q13G, the abundance fitness is reported as -0.016 ± 0.075.
